Patent US20220064294A1 (ARCUS BIOSCIENCES, published 2022)
Substitutions are numbered along the chain they refer to.

B1: 22B22 (antibody, V domains shown)
VH: EVQLVESGGGLVKPGGSLKLSCAASGFTFSSYAMSWVRQSPEKRLEWVAEISSGGSYTYYPDTVTGRFTISRDNAKNTLYLEMSSLRSEDTAMYYCARKRRDYYAMDYWGQGTSVTVSS
VL: DVQITQSPSYLAASPGETITINCRASKSISKYLAWYQEKPGKTNKLLIYSGSTLQSGIPSRFSGSGSGTDFTLTISSLEPEDFAMYYCQQHNEYPWTFGGGTKLEIK
notes: Mouse monoclonal antibody purified from hybridoma on Protein G; also called mAb 22B22; mouse anti-TIGIT clone 22B22
B2: 28P24 (antibody, V domains shown)
VH: QVQLQQSGAELVRPGTSVKMSCKAAGYTFTNYFIGWVKQRPGHGLDWIGDIYPGGGYTNYNEKFKGKATLTADTSSSTAYMQLSSLTSEDSAIYYCVRFYGNYVFAYWGQGTLVTVSA
VL: B1 VL with Y10C, S28T
notes: Mouse monoclonal antibody purified from hybridoma on Protein G; also called mAb 28P24; mouse anti-TIGIT clone 28P24
B3: 21B16 (antibody, V domains shown)
VH: B1 VH with S31T, S56T, Y60F
VL: B1 VL with M85V
notes: Mouse monoclonal antibody purified from hybridoma on Protein G; also called mAb 21B16; mouse anti-TIGIT clone 21B16
B4: 28O12 (antibody, V domains shown)
VH: B1 VH with S31N, S53G, Y60H
VL: B1 VL
notes: Mouse monoclonal antibody purified from hybridoma on Protein G; also called mAb 28O12; mouse anti-TIGIT clone 28O12
B5: 21B9 (antibody, V domains shown)
VH: B1 VH with A23T, P61T, A105G
VL: B1 VL with S56T
notes: Mouse monoclonal antibody purified from hybridoma on Protein G; also called mAb 21B9; mouse anti-TIGIT clone 21B9
B6: Hu24F8.1 Fab (Fab, V domains shown)
VH: QVQLQESGPGLVKPSETLSLTCAVYGYSITSGYSWHWIRQPPGKGLEWIGYVHYSGSTNYNPSLKSRVTISVDTSKNQFSLKLSSVTAADTAVYYCARMDYGNYGGAMDYWGQGTLVTVSS
VL: EIVMTQSPATLSVSPGERATLSCKASQDVRTAVAWYQQKPGQAPRLLIYSASYRYTGIPARFSGSGSGTEFTLTISSLQSEDFAVYYCQQYYSTQWTFGGGTKVEIK
notes: Fab with human IgG1/kappa constant domains, secreted as a SASA fusion protein and tested as supernatant; also called VH1 + VL2
B7: Hu24F8.3 Fab (Fab, V domains shown)
VH: B6 VH with E16G, Y25S, I38V, T74K
VL: DIQMTQSPSSLSASVGDRVTITCKASQDVRTAVAWYQQKPGKAPKLLIYSASYRYTGVPSRFSGSGSGTDFTFTISSLQPEDIATYYCQQYYSTQWTFGGGTKLEIK
notes: Fab with human IgG1/kappa constant domains, secreted as a SASA fusion protein and tested as supernatant; also called VH2 + VL1
B8: Hu24F8.4 Fab (Fab, V domains shown)
VH: B6 VH
VL: B7 VL
notes: Fab with human IgG1/kappa constant domains, secreted as a SASA fusion protein and tested as supernatant; also called VH1 + VL1
B9: Hu24F8.2 Fab (Fab, V domains shown)
VH: B6 VH with E16G, Y25S, I38V, T74K
VL: B6 VL
notes: Fab with human IgG1/kappa constant domains, secreted as a SASA fusion protein and tested as supernatant; Not the same preparation as Fab24F8 (papain fragment); also called VH2 + VL2
B10: chimera Fab mVH+mVL (mouse 24F8VH and 24F8VL with human IgG1/kappa Fab constant domains) (Fab, V domains shown)
VH: DVQLQESGPDLVKPSQSLSLTCTVTGYSITSGYSWHWIRQFPGNKLDWMGYVHYSGSTNYNPSLKSRISITRDTSKNQFFLQLNSVTTEDTATFYCARMDYGNYGGAMDYWGQGTSVTVSS
VL: EIVMTQSHKFMSTSVGDRVSITCKASQDVRTAVAWYQQKPGQSPKLLIYSASYRYTGVPDRFTGSGSGTDFTFTISSVQAEDLAVYYCQQYYSTQWTFGGGTKLEIK
notes: also called mouse/human chimera Fab
B11: 21F8 (antibody, V domains shown)
VH: DVQLQESGPGLVKPSQSLSLTCTVTGYSITSDYAWNWIRQFPGNKLEWMGYISYSGSTSYNPSLKSRISITRDTSKNQFFLQLNSVTTEDTATYYCARFMITTFAMDYWGQGTAVTVSS
VL: B10 VL with E1D, D28H, R30S, S52P, Y91H, S93N, Q95L
notes: Mouse monoclonal antibody purified from hybridoma on Protein G; also called mAb 21F8; mouse anti-TIGIT clone 21F8
B12: 24F8 (antibody, V domains shown)
VH: B10 VH
VL: B10 VL
notes: Mouse monoclonal antibody purified from hybridoma on Protein G; also called mAb 24F8; mouse anti-TIGIT clone 24F8
B13: 30M18 (antibody, V domains shown)
VH: EVQLQQSGPELVKPGASVKISCKTSGYTFTEYTMHWVKQSHGKSLEWIGGINPNNGGTSYNQKFKGKATLTVDKSSSTAYMELRSLTSEDSAVYYCARSGHMDYGYVYWGQGTTLTVSS
VL: B10 VL with E1D, D28Y, R30S, A51P, Y91H, Q95P
notes: Mouse monoclonal antibody purified from hybridoma on Protein G; also called mAb 30M18; mouse anti-TIGIT clone 30M18
B14: 5J24 (antibody, V domains shown)
VH: QVQLQQSGAELVRPGTSVKMSCKAAGYTFTNHWIGWVKQRPGHGLEWIGDIYPGGGYTNYNEKFKGKATLTADTSSSTAYMYLSSLTSEDSAIYYCARSYGYDLYAMDYWGQGTSVTVSS
VL: DIQMTQSPSSLSASLGERVSLTCRASQEISGYLSWLQQKPDGTIKRLIYAASTLGSGVPKRFSGSRSGSDYSLTISSLESEDFADYYCLQYDSYPFTFGAGTKLELK
notes: Mouse monoclonal antibody purified from hybridoma on Protein G; also called mAb 5J24; mouse anti-TIGIT clone 5J24

Key:
[1] = biological target: T1, cynomolgus monkey TIGIT, full length, on cells (cynomolgus monkey); experiment: flow cytometry on CHO-K1 cells expressing cyno TIGIT
T1 construct: Whole entry of 312 amino acids; also called cyno TIGIT; cTIGIT
Protocol: (§1) These clones were further expanded, and antibodies were purified using a Protein G column. These purified antibodies were tested for binding to human and cyno TIGIT expressed on cell surface by flow cytometry. Stable CHO-K1 cell lines expressing full length human TIGIT clone 2A7 (Swiss-Prot Q495A1; SEQ ID NO: 80) or full length cyno TIGIT clone C10 (Swiss-Prot A0A2K5UW92; SEQ ID NO: 84) were developed. For the flow assay, cells were collected and incubated in 100 μL of HBSS buffer in the presence (or absence) of various concentrations of antibodies for 1 hr at 4° C. After washing with HBSS, antibody binding on cells was detected with 2 μg/mL of Alexa488-labeled goat anti-mouse IgG antibody (ThermoFisher Scientific, Cat #A-11001) for 30 min at 4° C. Cells were then washed and resuspended in PBS and subjected to flow cytometry using an Attune NxT flow cytometer (ThermoFisher Scientific, Waltham, Mass.). The geometric mean of the fluorescence intensity was obtained for the whole single cell population. Antibodies capable of binding to both human and cyno TIGIT expressed on cell surface were further tested for their blocking activity against recombinant human CD155 binding to human TIGIT on the surface of CHO cells. CHO-hTIGIT cells (10⁵ cells) were incubated with 2.5 μg/mL hCD155-Fc protein in the presence of various concentrations of antibody at room temperature for 1 hr. […] Cells were then washed and subjected to flow cytometry analysis.

[2] = biological target: T2, human TIGIT, full length, on cells (human, UniProt Q495A1 22-244); experiment: flow cytometry on CHO-K1 cells expressing human TIGIT
T2 construct: also called hTIGIT; hTIGIT-CHO
T2 sequence: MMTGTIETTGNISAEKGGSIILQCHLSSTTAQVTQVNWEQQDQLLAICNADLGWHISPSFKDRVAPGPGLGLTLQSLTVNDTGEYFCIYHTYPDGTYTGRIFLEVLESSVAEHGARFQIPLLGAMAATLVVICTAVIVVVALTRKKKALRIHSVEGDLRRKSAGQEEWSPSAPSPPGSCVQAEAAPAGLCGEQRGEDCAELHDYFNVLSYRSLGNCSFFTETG
Protocol: as §1

[3] = biological target: T2, human TIGIT, full length, on cells; experiment: flow cytometry, inhibition of hCD155-Fc binding to CHO-hTIGIT cells
Protocol: as §1

cTIGIT-His = biological target: T3, cTIGIT-His (cynomolgus monkey); experiment: SPR, Biacore 8K, Fab-SASA supernatant captured on BSA chip, cTIGIT-His as analyte
T3 construct: also called His-tagged cyno TIGIT protein extracellular domain; soluble cTIGIT-His
T3 chain: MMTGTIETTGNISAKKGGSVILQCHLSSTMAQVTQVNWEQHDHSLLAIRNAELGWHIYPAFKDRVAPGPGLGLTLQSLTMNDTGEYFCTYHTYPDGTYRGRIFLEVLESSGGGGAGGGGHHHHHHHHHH
From the text: (§2) Oligonucleotides were designed and synthesized as Fab fragments with human IgG1/kappa constant domains for the two VH and two VL grafted human acceptors and inserted into a vector system for high throughput screening of expression levels and biophysical properties, without the need for protein purification (Zhang & Hirama, Patent Application Publication US 2012/0178110). All four combinations of VH1 (SEQ ID NO: 76) or VH2 (SEQ ID NO: 78) with VL1 (SEQ ID NO: 79) or VL2 (SEQ ID NO: 77) (FIGS. 1J-1M) were screened along with a chimera Fab mVH+mVL constructed from the mouse 24F8VH (SEQ ID NO: 5) & 24F8VL (SEQ ID NO: 6) domains and human IgG1/kappa Fab constant domains. Supernatants of the Fabs, secreted as a SASA (single-domain antibody against serum albumin) fusion proteins were analyzed by surface plasmon resonance (SPR) using a Biacore 8K instrument with Fab capture using an BSA coated chip and soluble His-tagged TIGIT as the analyte. The kinetic binding data for human and cyno TIGIT are shown in Table 9 for the five Fab fragments.

hTIGIT-His = biological target: T4, hTIGIT-His (human); experiment: SPR, Biacore 8K, Fab-SASA supernatant captured on BSA chip, hTIGIT-His as analyte
T4 construct: also called His-tagged human TIGIT protein extracellular domain; soluble hTIGIT-His
T4 chain: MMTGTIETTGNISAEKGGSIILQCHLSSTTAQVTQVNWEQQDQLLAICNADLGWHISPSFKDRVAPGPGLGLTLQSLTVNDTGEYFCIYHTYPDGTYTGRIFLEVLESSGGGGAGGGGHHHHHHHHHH
From the text: as §2

| Binder | EC50 [1] | EC50 [2] | IC50 [3] | Kd (cTIGIT-His) | koff (cTIGIT-His) | kon (cTIGIT-His) | Kd (hTIGIT-His) | koff (hTIGIT-His) | kon (hTIGIT-His) |
| --- | --- | --- | --- | --- | --- | --- | --- | --- | --- |
| B1 | 0.58 nM | 0.507 nM | 0.83 nM |  |  |  |  |  |  |
| B2 | 1.26 nM | 0.466 nM | 1.7 nM |  |  |  |  |  |  |
| B3 | 1.2 nM | 0.498 nM | 1.15 nM |  |  |  |  |  |  |
| B4 | 0.71 nM | 0.638 nM | 1.16 nM |  |  |  |  |  |  |
| B5 | 0.631 nM | 0.506 nM | 1.66 nM |  |  |  |  |  |  |
| B6 |  |  |  | 1.26 nM | 0.0014 s⁻¹ | 1.11e+06 M⁻¹ s⁻¹ | 0.0361 nM | 0.000111 s⁻¹ | 3.08e+06 M⁻¹ s⁻¹ |
| B7 |  |  |  | 6 nM | 0.00585 s⁻¹ | 974000 M⁻¹ s⁻¹ | 0.242 nM | 0.000481 s⁻¹ | 1.99e+06 M⁻¹ s⁻¹ |
| B8 |  |  |  | 9.81 nM | 0.0133 s⁻¹ | 1.35e+06 M⁻¹ s⁻¹ | 0.28 nM | 0.000855 s⁻¹ | 3.05e+06 M⁻¹ s⁻¹ |
| B9 |  |  |  | 1.09 nM | 0.000808 s⁻¹ | 742000 M⁻¹ s⁻¹ | 0.045 nM | 9.39e-05 s⁻¹ | 2.08e+06 M⁻¹ s⁻¹ |
| B10 |  |  |  | 0.474 nM | 0.000728 s⁻¹ | 1.54e+06 M⁻¹ s⁻¹ | 0.00127 nM | 2.37e-06 s⁻¹ | 1.86e+06 M⁻¹ s⁻¹ |
| B11 | 1.79 nM | 0.952 nM | 1.67 nM |  |  |  |  |  |  |
| B12 | 1.85 nM | 1.31 nM | 1.79 nM |  |  |  |  |  |  |
| B13 | 1.17 nM | 0.825 nM | 2.19 nM |  |  |  |  |  |  |
| B14 | 1.63 nM | 0.704 nM | 1.46 nM |  |  |  |  |  |  |
